In paper PMC9645375 (Chemical Science, 2022) one finds IC50 data, which are given here for one molecule.

The target in the test is HDM2 (human double minute 2) protein (human, UniProt Q00987 1-491). The test is described as follows: fluorescence polarisation. The conditions noted are these: both partners purified. For orientation: Polarisation of emitted light reports the rotation of a fluorescent probe.

One may read the IC50 as the concentration that gives 50% inhibition. High values mean weaker potency, low ones greater potency.

Chain of HDM2 (human double minute 2) protein (Q00987 whole entry): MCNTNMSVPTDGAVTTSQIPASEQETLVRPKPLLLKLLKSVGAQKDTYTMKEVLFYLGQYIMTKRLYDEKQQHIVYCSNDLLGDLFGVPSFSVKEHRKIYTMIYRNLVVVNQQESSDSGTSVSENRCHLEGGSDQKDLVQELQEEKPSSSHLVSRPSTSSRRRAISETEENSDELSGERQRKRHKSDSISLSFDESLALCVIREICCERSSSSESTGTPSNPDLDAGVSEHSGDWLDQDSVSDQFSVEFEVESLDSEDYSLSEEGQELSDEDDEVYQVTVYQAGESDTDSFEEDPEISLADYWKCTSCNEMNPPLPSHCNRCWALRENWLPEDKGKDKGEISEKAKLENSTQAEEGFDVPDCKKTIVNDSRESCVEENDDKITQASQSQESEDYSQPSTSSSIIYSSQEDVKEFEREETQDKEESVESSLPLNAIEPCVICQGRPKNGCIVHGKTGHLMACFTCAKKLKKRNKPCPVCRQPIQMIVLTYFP

B1: stapled HDM2-opt peptide (peptide)
peptide: PCFYDYWQCL
modifications: not fully specified; stapled (the two Cys residues at i and i+7 cross-linked)
notes: source: synthetic peptide
In turn, B1 had an IC50 of 6.9 ± 1.9 µM.
